# T1: Recombinant Human CD46 Protein (His Tag) (Sino biological, 12239-H08H) (human, UniProt P15529 35-328)
# T1 chain: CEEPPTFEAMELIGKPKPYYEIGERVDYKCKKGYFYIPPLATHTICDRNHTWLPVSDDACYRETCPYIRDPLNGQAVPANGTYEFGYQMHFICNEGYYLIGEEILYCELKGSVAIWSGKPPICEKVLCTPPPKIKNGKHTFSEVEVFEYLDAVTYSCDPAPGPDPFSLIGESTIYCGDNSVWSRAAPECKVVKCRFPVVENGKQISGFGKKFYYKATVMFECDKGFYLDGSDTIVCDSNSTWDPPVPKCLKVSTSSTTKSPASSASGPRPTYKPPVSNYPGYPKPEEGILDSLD
# T2: Recombinant Human Desmoglein-2 Fc Chimera Protein (R&D Systems, 947-DM-100) (human, UniProt Q14126 50-609)
# T2 chain: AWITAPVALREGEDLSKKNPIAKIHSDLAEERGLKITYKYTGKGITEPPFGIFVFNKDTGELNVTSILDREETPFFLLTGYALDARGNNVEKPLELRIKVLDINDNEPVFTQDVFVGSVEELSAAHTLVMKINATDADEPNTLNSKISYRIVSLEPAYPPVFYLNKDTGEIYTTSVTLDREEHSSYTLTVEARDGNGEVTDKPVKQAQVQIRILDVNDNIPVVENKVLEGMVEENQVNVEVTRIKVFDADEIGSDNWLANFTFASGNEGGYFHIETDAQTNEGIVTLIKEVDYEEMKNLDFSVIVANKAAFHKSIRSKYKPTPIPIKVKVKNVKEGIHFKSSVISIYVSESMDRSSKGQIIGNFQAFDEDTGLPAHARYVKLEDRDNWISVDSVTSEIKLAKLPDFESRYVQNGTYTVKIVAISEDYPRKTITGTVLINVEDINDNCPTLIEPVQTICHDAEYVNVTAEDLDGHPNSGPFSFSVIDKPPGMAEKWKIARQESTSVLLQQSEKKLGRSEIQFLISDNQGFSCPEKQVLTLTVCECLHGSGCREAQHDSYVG
# B1: HAdV-B3k (other)
# chain: TFDSSNSIALKNNTLWTGPKPEANCIIEYGKQNPDSKLTLILVKNGGIVNGYVTLMGASDYVNTLFKNKNVSINVELYFDATGHILPDSSSLKTDLELKYKQTADFSARGFMPSTTAYPFVLPNAGTHNENYIFGQCYYKASDGALFPLEVTVMLNKRLPDSRTSYVMTFLWSLNAGLAPETTQATLITSPFTFSYIREDD
# Experiments:
# [1] = molecular target: CAR on CHO-CAR cells (human) (UniProt P78310)
# Chain of CAR on CHO-CAR cells (human) (P78310 20-365): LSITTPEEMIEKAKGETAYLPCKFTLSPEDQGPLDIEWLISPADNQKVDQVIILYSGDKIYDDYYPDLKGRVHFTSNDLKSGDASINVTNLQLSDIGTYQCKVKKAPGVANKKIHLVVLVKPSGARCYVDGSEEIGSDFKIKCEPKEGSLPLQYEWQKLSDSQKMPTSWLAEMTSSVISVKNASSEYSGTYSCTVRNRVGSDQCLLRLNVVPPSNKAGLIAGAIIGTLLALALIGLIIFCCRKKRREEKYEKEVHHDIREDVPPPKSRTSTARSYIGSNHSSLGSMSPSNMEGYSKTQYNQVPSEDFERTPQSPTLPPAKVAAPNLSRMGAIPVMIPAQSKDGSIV
# [2] = molecular target: Recombinant Human CXADR Fc Chimera Protein (CAR; R&D Systems, 3336-CX-050) (human) (UniProt P78310); experiment: SPR (BIAcore 3000), receptor amine coupled to CM5 chip, knob as analyte
# Chain of Recombinant Human CXADR Fc Chimera Protein (CAR; R&D Systems, 3336-CX-050) (human) (P78310 20-237, stated change not applied): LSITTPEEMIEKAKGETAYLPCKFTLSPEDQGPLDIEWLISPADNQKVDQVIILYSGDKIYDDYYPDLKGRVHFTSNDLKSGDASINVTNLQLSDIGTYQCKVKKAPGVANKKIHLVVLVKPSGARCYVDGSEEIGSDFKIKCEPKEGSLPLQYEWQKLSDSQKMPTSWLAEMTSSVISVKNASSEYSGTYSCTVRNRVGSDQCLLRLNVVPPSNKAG
# [3] = molecular target: Recombinant Human CD46 Protein (His Tag) (Sino biological, 12239-H08H) (human) (UniProt P15529); experiment: SPR (BIAcore 3000), receptor amine coupled to CM5 chip, knob as analyte, equilibrium fit
# [4] = molecular target: Recombinant Human Desmoglein-2 Fc Chimera Protein (R&D Systems, 947-DM-100) (human) (UniProt Q14126); experiment: as above
# [5] = molecular target: Recombinant Human Desmoglein-2 Fc Chimera Protein (R&D Systems, 947-DM-100) (human) (UniProt Q14126); experiment: SPR
# [6] = molecular target: T1, Recombinant Human CD46 Protein (His …); experiment: SPR
# [7] = molecular target: T2, Recombinant Human Desmoglein-2 Fc …; experiment: SPR
Molecule,fold lower affinity than HAdV-C5 (by IC50 values) [1] [fold],Kd [2] [µM],Kd [3] [µM],Kd [4] [µM],Kd [5] [µM],Kd [6] [µM],Kd [7] [µM]
Recombinant HAdV-D10 fiber knob protein,16.5,0.44,20,125,–,–,–
Recombinant HAdV-C5 fiber knob protein (from UniProt P11818 387-581),–,0.00076,–,–,125,–,–
B1,–,–,–,–,–,0.16,66.9
